From patent US20240010747A1, “ANTI-MRP4 (ENCODED BY ABCC4 GENE) ANTIBODIES AND USES THEREOF” (Kenjockety Biotechnology, Inc., priority 2020, published 2024)

T1: human ABCC4 (Homo sapiens, UniProt O15439)
T1 construct: expressed in transfected cells
T1 sequence (O15439 1-1325): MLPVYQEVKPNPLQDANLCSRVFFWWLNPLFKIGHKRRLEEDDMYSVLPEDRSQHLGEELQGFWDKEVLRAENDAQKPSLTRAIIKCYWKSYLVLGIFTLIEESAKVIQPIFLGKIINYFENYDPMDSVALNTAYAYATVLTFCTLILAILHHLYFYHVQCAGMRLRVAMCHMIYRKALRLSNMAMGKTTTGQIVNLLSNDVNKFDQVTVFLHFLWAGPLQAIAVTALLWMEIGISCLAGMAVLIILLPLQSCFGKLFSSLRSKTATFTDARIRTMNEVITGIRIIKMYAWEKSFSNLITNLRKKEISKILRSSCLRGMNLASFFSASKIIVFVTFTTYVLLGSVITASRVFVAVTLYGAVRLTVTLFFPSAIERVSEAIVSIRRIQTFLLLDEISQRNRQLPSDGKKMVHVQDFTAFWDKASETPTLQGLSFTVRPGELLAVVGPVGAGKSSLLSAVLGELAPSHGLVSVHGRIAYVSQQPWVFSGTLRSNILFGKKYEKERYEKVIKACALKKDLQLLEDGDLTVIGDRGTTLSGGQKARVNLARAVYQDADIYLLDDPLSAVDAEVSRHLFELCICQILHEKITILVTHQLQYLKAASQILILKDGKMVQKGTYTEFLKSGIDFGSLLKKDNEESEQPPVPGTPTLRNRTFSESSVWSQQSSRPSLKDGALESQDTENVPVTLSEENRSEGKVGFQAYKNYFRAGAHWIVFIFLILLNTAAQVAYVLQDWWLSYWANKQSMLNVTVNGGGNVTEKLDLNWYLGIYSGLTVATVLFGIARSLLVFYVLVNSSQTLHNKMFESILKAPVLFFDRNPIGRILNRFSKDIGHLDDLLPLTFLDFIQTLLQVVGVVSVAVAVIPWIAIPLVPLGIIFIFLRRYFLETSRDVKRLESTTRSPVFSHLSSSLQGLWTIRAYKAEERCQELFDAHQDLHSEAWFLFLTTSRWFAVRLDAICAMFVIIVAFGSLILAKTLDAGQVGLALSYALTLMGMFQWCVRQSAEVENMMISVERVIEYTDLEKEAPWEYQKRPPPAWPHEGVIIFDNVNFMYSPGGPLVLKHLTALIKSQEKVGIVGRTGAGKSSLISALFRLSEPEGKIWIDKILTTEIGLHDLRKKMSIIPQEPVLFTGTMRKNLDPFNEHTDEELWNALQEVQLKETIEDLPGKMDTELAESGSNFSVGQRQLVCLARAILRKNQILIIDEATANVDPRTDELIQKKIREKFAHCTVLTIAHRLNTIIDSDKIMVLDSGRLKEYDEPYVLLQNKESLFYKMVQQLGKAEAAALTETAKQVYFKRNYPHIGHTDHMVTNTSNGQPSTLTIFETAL


Columns and labels:
human ABCC4 = target: T1, human ABCC4; experiment: Flow cytometry (FACS) binding to C6 cells stably transfected to express human ABCC4 (different experiment, Table 4); settings: C6 cells stably transfected to express human ABCC4, FACS; different experiment, Table 4
In short: (§1)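 Murine C6 cells stably expressing FLAG-tagged human or cynomolgus ABCC4 incubated 30 min on ice with antibodies, either 5 ug/mL or serially diluted from 100 ug/mL, in PBS+2% FBS+0.02% azide. Detection with PE anti-human IgG F(ab′)2 by flow cytometry; EC50 at half-maximal MFI; negative below background, positive >3× background.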

cynomolgus ABCC4 = experiment: Flow cytometry (FACS) binding to C6 cells stably transfected to express cynomolgus ABCC4 (different experiment, different C6.cC4 cell line, Table 4); set-up: key to Cynomolgus ABCC4 binding: Negative (−)=Rmax (MFI) below background level; Positive (+)=MFI>3× background level; settings: different C6.cC4 cell line, C6 cells stably transfected to express cynomolgus ABCC4, FACS; Table 4
In short: as §1

| Human ABCC4 binding (human ABCC4) | Molecule | Cynomolgus ABCC4 binding (cynomolgus ABCC4) |
| --- | --- | --- |
| + (Positive (+)=MFI>3× background level) | C4.1059 (antibody, V domains shown) VH: QVQLLQSGAALVKPGASVKMSCKPSGYTFTDYWVSWVKQSHGKSLEWIGEIYPNNGATNFNEKFKGKATLTVDKSTSTAYMELSRLTSEDSAIYYCPSRKYGYNWNFDYWGQGTMVTVSS VL: DIVLTQSPALAVSLGQRATISCWASQSVSISRYNLMHWYQQKPGQQPKLLIYRASNLASGIPARFSGSGSGTDFTLTINPVQADDIATYYCQQSGESPWTFGGGTKLELK | − |
| + (Positive (+)=MFI>3× background level) | C4.1139 (antibody, V domains shown) VH: EVQLVESDGGLVQPGRSLKLSCAASGFTFSDYYMAWVRQAPTKGLYWVASISYDGSTTYYRDSVKGRFTISRDNAKSTLYLQMGSLRSEDTATYYCARLSIRYKGVMDAWGRGASVTVSS VL: DVVMTQSPSNLAASPGESVSINCKASKSIGKFLAWYQQKPGRPNKLLIYSGSTLQSGTPSRFSGSGSGTDFTLTIRNLEPGDFGLYYCQHHIEYPPTFGPGTKLELK | − |
| + (Positive (+)=MFI>3× background level) | C4.1148 (antibody, V domains shown) VH: EVQLVESDGGLVQPGRSLKLSCAASGFTFSDYYMAWVRQAPPKGLEWVATISYDAFTTYYRDSVKGRFTISRDNAKTILFLQMDSLRSEDTATYYCIRLSTRYKGVMDAWGHGASVTVSS VL: DIQMTQSPSNLAASPGESVSINCKASETIYKYLAWYQQKPGRTNKLLIYSGSTLQSGTPSRFSGSGSGTDFTLTIRNLEPEDFGRYYCQHHVEYPPTFGAGTKLELK | − |
